B1: MYL5 (parent)
chain: DVAGNLDYKALSYVITHGEEKEE
B2: NR2F2 (parent)
chain: NIPFFPDLQITDQVALLRLTWSEL

Variants of: B1
Assay: protein stability index of a GFP-peptide fusion (GPS, HEK-293T) (PSI 1-6); higher = more stable
Settings: c terminus: native
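Note: lentivirally expressed fusions sorted by FACS into six bins by GFP to DsRed ratio, PSI derived from sequencing read proportions per bin multiplied by bin number.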

| Variant | protein stability index |
| --- | --- |
| E22D | 4.71 |
| E22R | 4.24 |
| E22A | 4.23 |
| D1P | 1.66 |
| K9A | 2.29 |
| V14M | 1.24 |
| L11A | 2.56 |
| L11C | 2.64 |
| Y13H | 2.12 |
| Y13M | 2.08 |
| Y13C | 2.63 |
| N5T | 2.29 |
| N5Q | 2.61 |
| N5I | 2.54 |
| N5G | 2.88 |
| D7I | 1.44 |
| D7A | 1.89 |
| D7M | 2.11 |
| E19F | 3.04 |
| E19I | 2.19 |

| Variant | protein stability index |
| --- | --- |
| E19N | 3.3 |
| I15A | 2.1 |
| I15M | 1.82 |
| I15T | 2.81 |
| I15V | 2.59 |
| I15H | 3.3 |
| G4Q | 1.8 |
| V2Y | 4.5 |
| V2K | 1.82 |
| V2F | 1.19 |
| T16H | 2.48 |
| H17M | 1.64 |
| H17L | 2.23 |
| H17R | 2.25 |
| A10W | 4.9 |
| A10K | 3.21 |
| A10R | 1.74 |
| A10L | 1.97 |
| A10D | 2.09 |
| G18T | 1.78 |

| Variant | protein stability index |
| --- | --- |
| G18I | 2.42 |
| G18Q | 1.94 |
| E23Y | 3.97 |
| E23L | 2.42 |
| E23A | 4.11 |
| E23F | 2.69 |
| E20I | 1.81 |
| E20F | 2.78 |
| E20T | 2.31 |
| S12T | 3.01 |
| S12E | 2.13 |
| S12A | 1.72 |
| L6D | 2.06 |
| L6F | 2.82 |
| L6P | 2.01 |
| L6E | 2.52 |
| K21F | 1.37 |
| K21S | 1.52 |

Variants of: B2
Assay: as above
Settings: c terminus: a fixed tail appended

| Variant | protein stability index |
| --- | --- |
| S22N | 2.28 |
| S22E | 2.1 |
| S22Q | 1.91 |
| S22T | 2.19 |
| L16M | 3.26 |
| L16A | 2.41 |
| L19S | 2.15 |
| L19M | 1.76 |
| L19C | 2.44 |
| L19N | 2.4 |
| L19V | 3.94 |
| I10M | 2.49 |
| I10N | 2.05 |
| I10W | 2.39 |
| I10R | 1.49 |
| P6S | 2.52 |
| P6C | 1.8 |
| P6T | 2.77 |
| P6Y | 3.14 |
| F4L | 3.09 |
| F4H | 2.35 |
| W21V | 2.4 |

| Variant | protein stability index |
| --- | --- |
| W21E | 2.78 |
| W21Y | 1.92 |
| W21Q | 2.21 |
| W21D | 3.41 |
| A15V | 2.22 |
| A15G | 1.19 |
| A15N | 2.38 |
| A15P | 1.69 |
| A15Y | 1.67 |
| A15L | 2.58 |
| F5G | 1.7 |
| F5H | 1.79 |
| L8N | 1.86 |
| L8T | 2.73 |
| L8Q | 2.22 |
| Q13V | 2.66 |
| Q13W | 2.93 |
| Q13E | 2.2 |
| Q13C | 3.12 |
| Q13S | 2.33 |
| Q13P | 2.57 |
| Q13R | 1.92 |

| Variant | protein stability index |
| --- | --- |
| Q9S | 2.83 |
| Q9G | 4.13 |
| Q9P | 1.93 |
| Q9T | 2.26 |
| Q9N | 2.63 |
| P3T | 2.46 |
| P3G | 2.86 |
| R18S | 2.13 |
| R18Y | 2.75 |
| R18D | 1.54 |
| R18V | 2.27 |
| R18I | 3.87 |
| T11G | 2.28 |
| T11K | 2.55 |
| T11N | 1.67 |
| T11F | 3.29 |
| T11W | 3.19 |
| T11V | 1.99 |
| T11Y | 1.46 |
| T11A | 3.71 |
| T11H | 2.89 |
| T11I | 2.59 |

| Variant | protein stability index |
| --- | --- |
| T11E | 2.06 |
| T20V | 1.95 |
| T20E | 1.96 |
| T20M | 1.89 |
| T20C | 2.16 |
| T20K | 1.59 |
| I2F | 2.28 |
| I2Y | 1.47 |
| I2G | 1.46 |
| I2A | 1.05 |
| D12G | 2.42 |
| D12Y | 4.16 |
| D12F | 2.42 |
| D7H | 2.53 |
| D7M | 3.45 |
| D7V | 2 |
| D7Y | 2.79 |
| D7E | 2.4 |
| L17G | 1.92 |
| L17S | 1.79 |
| L17R | 1.98 |
| L17Y | 2.15 |

| Variant | protein stability index |
| --- | --- |
| L17D | 2.08 |
| L17H | 1.54 |
| V14S | 1.74 |
| V14Q | 1.99 |
| V14E | 1.9 |
| V14Y | 2.03 |
| V14F | 2.04 |
| V14L | 2.72 |
| V14W | 3.25 |
| V14M | 2.14 |
| V14I | 2.81 |
| L24G | 1.65 |
| L24H | 2.68 |
| L24K | 2.25 |
| L24C | 2.62 |
| N1S | 1.75 |
| N1C | 2.81 |
| N1D | 3.27 |
| E23C | 3.21 |
| E23M | 3.42 |
| E23N | 3.71 |
